Data on ten substances can be found in patent US20200024330A1.

Some results are limits rather than exact numbers.

The target in assay [1] is HIV-1 Env of isolate ZM249 (HIV-1). Put plainly: cell-based or functional assay.
The target in assay [2] is HIV-1 Env of isolate CAP45 (HIV-1). The assay can be described thus: cell-based or functional assay.
In assay [3] the target is HIV-1 Env of isolate DU422 (HIV-1). Put plainly: cell-based or functional assay.
Assay [4] has as its target HIV-1 envelope glycoprotein (Env) of isolate 6535.3, on pseudovirus (HIV-1). The assay can be described thus: cell-based or functional assay.
Assay [5] addresses HIV-1 envelope glycoprotein (Env) of isolate MGRM-Chronic-B-008, on pseudovirus (HIV-1). The assay can be described thus: cell-based or functional assay.
Assay [6] concerns the target HIV-1 93UG077 Env (pseudovirus) (HIV-1). The assay can be described thus: cell-based or functional assay.
Assay [7] concerns the target HIV-1 MGRM-AG-005 Env (clade AG pseudovirus) (HIV-1). The assay can be described thus: cell-based or functional assay.
Assay [8] concerns the target HIV-1 MGRM-D-001 Env (clade D pseudovirus) (HIV-1). The assay can be described thus: cell-based or functional assay.
In assay [9] the target is HIV-1 JRCSF Env (clade B pseudovirus) (HIV-1) (UniProt P20871). Put plainly: cell-based or functional assay.
The target in assay [10] is HIV-1 MGRM-C-028 Env (clade C pseudovirus) (HIV-1). Put plainly: cell-based or functional assay.
Assay [11] addresses HIV-1 JRFL Env (clade B pseudovirus) (HIV-1). Put plainly: cell-based or functional assay.
Assay [12] deals with HIV-1 MGRM-AG-005 Env (pseudovirus) (HIV-1). Put plainly: cell-based or functional assay.
Assay [13] deals with HIV-1 Env of isolate APV13 (clade B) (HIV-1). The assay can be described thus: cell-based or functional assay.
The target in assay [14] is HIV-1 Env of isolate MGRM-AG-005 (clade AG) (HIV-1). The assay can be described thus: cell-based or functional assay.
Assay [15] has as its target HIV-1 Env of isolate APV17 (clade B) (HIV-1). The assay can be described thus: cell-based or functional assay.
The target in assay [16] is HIV-1 Env of isolate NL43 (clade B) (HIV-1). Put plainly: cell-based or functional assay.
For assay [17], the target named is HIV-1 Env of isolate APV6 (clade B) (HIV-1). The assay can be described thus: cell-based or functional assay.
Assay [18] has as its target WT JR-FL gp120 (HIV-1 (isolate JR-FL)). Put plainly: ELISA on coated gp120; EC50 by nonlinear regression. In general terms: ELISA stands for enzyme-linked immunosorbent assay.
The target in assay [19] is JR-FL gp120 ΔV1/ΔV2 (HIV-1 (isolate JR-FL)). The assay is described as above.
For assay [20], the target named is HIV-1 JR-CSF Env N295A (HIV-1 JR-CSF) (UniProt P20871). The assay can be described thus: cell-based or functional assay.
The target of assay [21] is HIV-1 JR-CSF Env T394A (HIV-1 (isolate JR-CSF)) (UniProt P20871). Put plainly: cell-based or functional assay.
Assay [22] has as its target HIV-1 JR-CSF Env W395A (HIV-1 (isolate JR-CSF)) (UniProt P20871). The assay can be described thus: cell-based or functional assay.
Assay [23] addresses HIV-1 JR-CSF Env I309A (HIV-1 JR-CSF) (UniProt P20871). Put plainly: cell-based or functional assay.
Assay [24] has as its target HIV-1 JR-CSF Env N332A (HIV-1 isolate JR-CSF) (UniProt P20871). The assay can be described thus: cell-based or functional assay.
Assay [25] has as its target HIV-1 Env of isolate 92BR020 (HIV-1). The assay can be described thus: cell-based or functional assay.
Assay [26] deals with HIV-1 JR-CSF Env N386A (HIV-1 isolate JR-CSF) (UniProt P20871). The assay can be described thus: cell-based or functional assay.
The target of assay [27] is HIV-1 envelope glycoprotein (Env) of isolate MGRM-Chronic-B-001, on pseudovirus (HIV-1). Put plainly: cell-based or functional assay.
In assay [28] the target is HIV-1 Env of isolate MGRM-F1-017 (clade F), on pseudovirus (HIV-1). Put plainly: cell-based or functional assay.
The target of assay [29] is HIV-1 Env of isolate MGRM-D-029 (HIV-1). Put plainly: cell-based or functional assay.
In assay [30] the target is HIV-1 envelope glycoprotein (Env) of isolate MGRM-Chronic-B-020, on pseudovirus (HIV-1). Put plainly: cell-based or functional assay.
Assay [31] concerns the target HIV-1 Env of isolate MGRM-AE-002 (pseudovirus) (HIV-1). Put plainly: cell-based or functional assay.
The target in assay [32] is HIV-1 Env of isolate APV_17 (HIV-1). Put plainly: cell-based or functional assay.
Assay [33] addresses HIV-1 Env of isolate MG RM-A-011 (pseudovirus) (HIV-1). The assay can be described thus: cell-based or functional assay.
Assay [34] deals with HIV-1 Env of isolate MGRM-AE-005 (pseudovirus) (HIV-1). Put plainly: cell-based or functional assay.
The target in assay [35] is HIV-1 Env of isolate MGRM-D-001 (subtype D), on pseudovirus (HIV-1). Put plainly: cell-based or functional assay.
The target of assay [36] is HIV-1 Env of isolate APV_13 (HIV-1). Put plainly: cell-based or functional assay.
Assay [37] addresses HIV-1 Env of isolate 92WR020 (pseudovirus) (HIV-1). Put plainly: cell-based or functional assay.

As for 1443_C16 (PG16) (TCN-116) (antibody), the results for the IC50, pseudovirus neutralization (TZM-bl) in [1], in assay [2] and in [3] were under 0.01 µg/mL, under 0.01 µg/mL and 0.59 µg/mL, respectively.

With 1496_C09 (PG9) (TCN-109) (antibody), the IC50, pseudovirus neutralization came to 1.05 µg/mL in assay [4] and 8.78 µg/mL in assay [5].

In assay [6], 4838_L06 (PGT-121) (antibody) registered a neutralization IC90 of 0.369 µg/mL and a neutralization IC95 of 0.74 µg/mL.

With 4877_D15 (PGT-122) (antibody), the Neutralization by PGT-122, IC50 in assay [7] was over 10 µg/mL; in assay [8] it was 0.867 µg/mL; in assay [9] it was 0.0727 µg/mL; in assay [10], 2.06 µg/mL; in assay [11] it was 0.0471 µg/mL. Besides, the Neutralization by PGT-122, IC80 was over 10 µg/mL in assay [7]; 4.48 µg/mL in assay [8]; 0.245 µg/mL in assay [9]; over 10 µg/mL in assay [10]; 0.166 µg/mL in assay [11]. Further, the Neutralization by PGT-122, IC90 in assay [7] was over 10 µg/mL; in assay [8] it was over 10 µg/mL; in [9], 0.494 µg/mL; in [10], over 10 µg/mL; in assay [11] it was 0.342 µg/mL. The Neutralization by PGT-122, IC95 in assay [7] is over 10 µg/mL; in assay [8] it was over 10 µg/mL; in [9], 0.926 µg/mL; in assay [10], over 10 µg/mL; in assay [11], 0.659 µg/mL.

A word on the IC50: it is the concentration that inhibits the measured activity by half. A word on the IC80: it is the point of the concentration-response curve where the effect stands at 80%. Higher therefore signals weaker potency. As a reminder, the IC90 is the concentration needed for an effect of 90%. High values mean weaker potency, low ones greater potency. A word on the IC95: it is the concentration needed for an effect of 95%. Take 5141_B17 (PGT-126) (antibody): in assay [12], the IC50 was 1.35 µg/mL, the IC80 is over 10 µg/mL, the IC90 is over 10 µg/mL and the IC95 was over 10 µg/mL. In assay [6], this substance registered an IC50 of 0.0256 µg/mL, an IC80 of 0.102 µg/mL, a concentration for an effect of 90% (IC90) of 0.238 µg/mL and an IC95 of 0.577 µg/mL.

Consider 5147_N06 (PGT-130) (antibody), for which the neutralization IC50 in assay [13] is 0.0345 µg/mL; in [14] it was 0.947 µg/mL; in [15] it was over 10 µg/mL; in assay [16], over 10 µg/mL; in assay [17], over 10 µg/mL. In addition, the neutralization IC80 is 0.573 µg/mL in [13]; over 10 µg/mL in [14]; over 10 µg/mL in assay [15]; over 10 µg/mL in assay [16]; over 10 µg/mL in [17]. In addition, the neutralization IC90 in [13] was 2.88 µg/mL; in assay [14], over 10 µg/mL; in [15] it was over 10 µg/mL; in assay [16], over 10 µg/mL; in [17] it was over 10 µg/mL. Also, the neutralization IC95 in assay [13], in assay [14], in assay [15], in assay [16] and in assay [17] was over 10 µg/mL in each case.

In general, EC50 refers to the midpoint of the concentration-response curve. A higher EC50 goes with weaker potency. Consider PGT-121 (antibody), for which the EC50 in assay [18] and in [19] was 0.2 µg/mL in each case. Besides, the Fold IC50 increase relative to wild-type in assay [20] was 0.6 fold; in assay [21] it was 0.2 fold; in assay [22], 0.5 fold; in [23], 1.1 fold; in assay [24], over 200 fold; in [26], 1.3 fold. The same substance yielded a Primary Neutralization Index (B cell culture well 4838 L06) in assay [25] of 4.9. In assay [25], this substance registered a Primary Neutralization Index (B cell culture well 4873 E03) of 3.6.

On to PGT-122 (antibody), for which the EC50 in assay [18] and in assay [19] was 0.3 µg/mL in each case. The Fold IC50 increase relative to wild-type in assay [20] was 0.7 fold; in assay [21] it was 0.6 fold; in assay [22] it was 0.4 fold; in assay [23], 2.1 fold; in assay [24], over 200 fold; in [26], 1.2 fold.

Take PGV04 (antibody): the IC50, pseudovirus neutralization came out at 0.048 µg/mL in [27], 0.757 µg/mL in [4], 0.166 µg/mL in [5] and 1.26 µg/mL in assay [30]. For the same substance, in [28], the IC50 (µg/mL), single-round pseudovirus neutralization worked out at 2.38 µg/mL. In [29], this substance registered an IC50 (µg/mL), pseudovirus neutralization of 1.56 µg/mL.

As to VRC01 (antibody), the IC50 (µg/mL), pseudovirus neutralization in [31] came to 0.217 µg/mL; in assay [33], 0.273 µg/mL; in assay [34], 0.029 µg/mL; in assay [37], 0.13 µg/mL. In addition, the figures for the IC50 in assay [32], in assay [25] and in assay [36] were 0.477 µg/mL, 0.29 µg/mL and 0.657 µg/mL, respectively. The IC50, pseudovirus neutralization in assay [29] is 3.22 µg/mL; in assay [35], over 50 µg/mL.
